This experiment addresses T1, OB-R (Homo sapiens, UniProt P48357).
T1 construct: After confirming via Western that the primary EEC and ESC and endometrial cell lines utilized herein had OB-R; endogenous in cells; host or cells: primary human EEC and ESC; Ishikawa (ECACC 9832301) and HES cell lines
T1 sequence (P48357 22-1165): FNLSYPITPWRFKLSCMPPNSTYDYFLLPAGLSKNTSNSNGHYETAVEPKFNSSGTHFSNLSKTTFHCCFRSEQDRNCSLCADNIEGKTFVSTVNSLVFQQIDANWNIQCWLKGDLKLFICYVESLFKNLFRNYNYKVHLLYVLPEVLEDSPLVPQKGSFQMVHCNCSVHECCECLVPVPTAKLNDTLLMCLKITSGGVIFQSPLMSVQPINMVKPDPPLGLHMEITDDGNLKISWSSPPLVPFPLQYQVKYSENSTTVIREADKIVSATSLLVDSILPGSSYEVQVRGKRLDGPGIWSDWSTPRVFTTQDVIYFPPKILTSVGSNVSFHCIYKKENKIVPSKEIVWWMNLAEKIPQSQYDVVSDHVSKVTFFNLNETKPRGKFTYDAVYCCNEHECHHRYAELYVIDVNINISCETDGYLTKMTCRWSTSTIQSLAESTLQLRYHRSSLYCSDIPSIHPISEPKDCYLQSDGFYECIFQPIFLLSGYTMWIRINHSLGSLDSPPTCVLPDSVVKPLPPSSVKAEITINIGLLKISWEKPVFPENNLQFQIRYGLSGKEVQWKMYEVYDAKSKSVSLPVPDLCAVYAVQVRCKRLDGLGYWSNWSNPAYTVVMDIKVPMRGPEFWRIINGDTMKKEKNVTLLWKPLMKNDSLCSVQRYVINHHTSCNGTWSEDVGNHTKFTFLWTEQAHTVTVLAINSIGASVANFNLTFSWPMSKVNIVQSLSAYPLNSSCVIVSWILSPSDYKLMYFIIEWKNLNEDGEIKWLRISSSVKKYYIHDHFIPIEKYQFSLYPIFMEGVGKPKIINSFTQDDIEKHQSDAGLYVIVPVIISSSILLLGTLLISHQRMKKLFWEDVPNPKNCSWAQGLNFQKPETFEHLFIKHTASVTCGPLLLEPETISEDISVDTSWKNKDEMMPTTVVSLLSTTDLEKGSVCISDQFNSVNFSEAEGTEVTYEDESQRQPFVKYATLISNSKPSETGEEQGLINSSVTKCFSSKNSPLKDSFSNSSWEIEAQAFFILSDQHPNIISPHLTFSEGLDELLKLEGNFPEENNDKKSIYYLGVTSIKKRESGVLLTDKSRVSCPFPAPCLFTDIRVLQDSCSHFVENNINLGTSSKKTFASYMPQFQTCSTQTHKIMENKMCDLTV
In words: p-STAT3 levels in human endometrial cells (Western blot). The experiment is classed as cell-based. Conditions: for effect on leptin-induced increase of p-STAT3 levels: peptide 300 nM. As for the experimental part: Primary human endometrial cells (ESC and EEC) were cultured for 5-9 days in DMEM-F12 medium containing 5% fetal bovine serum (FBS), 5 μg/ml insulin, 1% amphopthericin B, 100 μg/ml streptomycin and 100 U/ml penicillin until they were 80% confluent. Two types of endometrial epithelial cell lines, HES (originally derived from a benign proliferative endometrium) and Ishikawa (human endometrial epithelial adenocarcinoma, ECACC 9832301, Wiltshire, England) were cultured under the same conditions described above. The cells were washed twice with 100 mM phosphate saline buffer (PBS), pH 7.2 and cultured for additional 2 days in the same medium but without FBS (basal medium). Cells were washed as described before and cultured in basal medium containing leptin (0, 3, 10 or 62 nM) or IL-1β (0.6, 3 and 10 nM).
The anti-OB-R antibody (10 and 20 μg/ml) and LPA-2, a specific inhibitor of OB-R (3, 120, 300 nM or 30 μM) were used to assess whether leptin-induced effects were regulated primarily by the OB-R. Non-specific species-matched IgGs to the OB-R antibody and a scrambled version of LPA-2 (LPA-2Sc) served as negative controls (Gonzalez and Leavis, Endocrine 21: 185-195 (2003)). Inhibitors of IL-1R were used (monoclonal antibody anti-IL-1R tl and IL-1Ra) to assess whether leptin activated IL-1 induced signaling pathways or just activated similar components responsible for LIF/LIF-R expression. Treatment with the cytokine, inhibitor or the two combined was implemented for 5, 15, 30 and 60 min, and 24 and 48 h. The cells were prepared for Western blot analysis. The conditioned media was collected, lyophilized and stored at −80° C. until analysis for LIF, IL-1β and IL-1Ra by ELISA could be performed. Duplicate wells were run for each treatment and the experiments repeated at least three times with different cell preparations.
Endometrial cells were washed with ice-cold PBS and lysed by homogenization on ice with lysis buffer A [[…] Tris, pH 7.4, containing 137 nM NaCl, 2 mM EDTA, 10% glycerol, 50 mM β-glycerophosphate, 1% Nonidet P-40 and a mixture of proteases and phosphatase inhibitors composed of 100 μM antipain, 0.1 mg/ml trypsin inhibitor, protease inhibitor cocktail 1:50 (Sigma), 50 nM NaF, 2 mM phenyl-methylsulfonyl fluoride, and 2 mM sodium orthovanadate]. Cellular lysates were centrifuged at 2400 g at 4° C. for 10 min. For nuclear lysates the cells were scraped from the culture plates and homogenized with lysis buffer B (10 nM Tris, pH 7.4, 0.25 M sucrose, 0.1 mM EDTA containing the same mixture of protease and phosphatase inhibitors as buffer A). Protein concentrations were determined using the Bradford protein assay (BioRad Laboratories Inc., Hercules, Calif.).
30 μg of protein from nuclear or cellular lysates were incubated in ependorf tubes containing 0.5 μg of primary antibodies (anti-LIF-R, OB-R, STAT3 and p-STAT3 diluted in buffer A) for 2 h at 4° C. under constant stirring. The immuno-complexes were incubated with 20 μl of Protein G-Agarose (Amersham Pharmacia Biotech) diluted 1:1 with buffer A for a 2 additional hours under constant stirring. The beads were centrifuged for 1 min at 1000 g and washed with buffer A containing 0.5 M NaCl followed by a final wash with buffer A.
Cellular lysates and their immunoprecipitates containing 10-30 μg of protein plus Laemmli buffer (1:1) were incubated at 95° C. for 5 min. […]

The results in this text go back to patent publication US8058228B2, “Leptin peptide antagonists” (Boston Biomedical Research Institute, priority 2004, dated 2011).

Take “SRNVIQISNDLENLRDLLHVLAFSKS [LPA-2, 26 amino acid peptide, residues 70-95 of helix III of the human leptin molecule; leptin peptide antagonist]”: the “p-STAT3 level compared to non-treated control cells” value (Ishikawa cells, LPA-2 treatment) is reported as “decrease level of p-STAT3”. The “effect on leptin-induced increase of p-STAT3 levels” value (Ishikawa cells, leptin 62 nM) is listed as “inhibited the leptin-induced increase”.
With “VAEVLNRSDLIQRISFSLDLNNSKLH [LPA-2Sc, scrambled version of LPA-2, negative control, reference compound]”, the “effect on leptin-induced increase of p-STAT3 levels” value (Ishikawa cells, leptin 62 nM) is “had no effect”.
Turning to “leptin: human recombinant leptin (R&D Systems), OB-R ligand used as stimulus”, where the note is “Ishikawa cells, leptin 62 nM”, the “p-STAT3 levels over non-treated controls after leptin” value is on record as “increased the levels of p-STAT3”. Where the note is “primary EEC, leptin 10 and 62 nM, 5 min, nuclear extracts”, the “p-STAT3 levels after leptin” value was “increase in the levels of p-STAT3”.
